Data taken from US20210122823A1 (EXCELMAB, published 2021).
Numbering of substitutions follows the chain as printed. Each block holds one binder with its values, some of them ahead of it.

Tests used:
[1] = target: HER2 on tumor cell lines (SKBR-3, NCI-N87, MCF-7; 293F as HER2-negative control) (human, UniProt P04626 23-1255); assay: cell-based or functional assay
human CD3 antigen = target: T1, human CD3 antigen (human, UniProt P07766 23-126); assay: ELISA, CD3 antigen coated on plate, anti-human IgG-peroxidase detection
T1 construct: also called antigen CD3
T1 sequence (P07766 23-126): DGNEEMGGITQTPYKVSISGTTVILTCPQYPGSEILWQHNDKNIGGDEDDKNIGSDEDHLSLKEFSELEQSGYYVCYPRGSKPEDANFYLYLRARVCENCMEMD

- EC50 (human CD3 antigen): 1.4 µg/mL
B1: HER2-OB1×GXP2 bispecific antibody (bispecific antibody, human IgG1, kappa, L234A L235A)
heavy 1: not shown
heavy 2: EVQLVESGGGLVQPGGSLKLSCAASGFTFNTYAMNWVRQAPGKGLEWVARIRSKYNNYATYYADSVKDRFTISRDDSKNTAYLQMNNLKTEDTAMYYCVRHGNFGNSYVSWFAYWGQGTLVTVSSASTKGPSVFPLAPSSKSTSGGTAALGCLVKDYFPEPVTVSWNSGALTSGVHTFPAVLQSSGLYSLSSVVTVPSSSLGTQTYICNVNHKPSNTKVDKKVEPKSCDKTHTCPPCPAPEAAGGPSVFLFPPKPKDTLMISRTPEVTCVVVDVSHEDPEVKFNWYVDGVEVHNAKTKPREEQYNSTYRVVSVLTVLHQDWLNGKEYKCKVSNKALPAPIEKTISKAKGQPREPQVYTLPPSRDELTKNQVSLTCLVKGFYPSDIAVEWESNGQPENNYKTTKKKLDSDGSFFLYSKLTVDKSRWQQGNVFSCSVMHEALHNHYTQKSLSLSPGK
light: DIQMTQEPSLTTSPGGTVTLTCRSSTGAVTTSNYANWVQEKPGQAPRGLIGGTNKRAPGTPARFSGSLIGGKAALTITGVQPEDEAIYFCALWYSNLWVFGGGTKLEIKRTVAAPSVFIFPPSDEQLKSGTASVVCLLNNFYPREAKVQWKVDNALQSGNSQESVTEQDSKDSTYSLSSTLTLSKADYEKHKVYACEVTHQGLSSPVTKSFNRGEC
notes: also called HER2×GXP2; Her2×GXP2
- EC50 of PBMC-mediated killing of NCI-N87 cells (LDH release) [1]: 0.000395 µg/mL
- EC50 of PBMC-mediated killing of SKBR-3 cells (LDH release), fold lower than Herceptin [1]: > 100 times lower than Herceptin

- EC50 (human CD3 antigen): 3.15 µg/mL
B2: HER2-OB1×GXP bispecific antibody (bispecific antibody)
chain 1: not shown
chain 2: B1 heavy 2 with Q3K, V5L, G15K, K78Q, N79S, T80I, A81L
chain 3: QAVVTQESALTTSPGETVTLTCRSSTGAVTTSNYANWVQEKPDHLFTGLIGGTNKRAPGVPARFSGSLIGDKAALTITGAQTEDEAIYFCALWYSNLWVFGGGTKLVTMEIKRTVAAPSVFIFPPSDEQLKSGTASVVCLLNNFYPREAKVQWKVDNALQSGNSQESVTEQDSKDSTYSLSSTLTLSKADYEKHKVYTCEVTHQGLSSPVTKSFNRGEC
